{
  "source": "paper PMC10164576",
  "about": "“Interaction with the carboxy-terminal tip of SSB is critical for RecG function in E. coli” (Nucleic Acids Research, 2023)",
  "key": {"RecG (WT)": {"target": "T1, RecG (WT) (Escherichia coli, UniProt P24230)", "T1 construct": "RecG was expressed in STL2669/pT7pol26 (a gift from Dr Susan Lovett, Brandeis University) with overexpression plasmid pEAW111; made in house; host or cells: E. coli STL2669/pT7pol26", "assay": "Fluorescence anisotropy binding of 6-FAM-labelled SSB peptides to wildtype RecG", "design": "species or system E. coli", "conditions": "read-out: FP K D; WT RecG; fluorescence anisotropy; 10 nM N-terminal 6-FAM peptide; 0.2 M potassium glutamate, 25 mM Tris-acetate pH 7.6, 10 mM magnesium acetate; 30 min at room temperature, read at 25°C; one site fit; triplicate", "experimental": "SSB peptides (sequences listed in Figure 2) were designed with an N-terminal tryptophan residue for quantification and N-terminal 6-FAM label (Genscript). RecG was incubated with 0.2 M potassium glutamate, 1 mM DTT, 0.1 μg/ml BSA, 1 × RecA buffer (25 mM Tris-acetate, pH 7.6, 5% w/v glycerol, 3 mM potassium glutamate, 10 mM magnesium acetate, 1 mM DTT), and 10 nM labeled peptide at room temperature for 30 min. Fluorescence polarization (FP) values were measured at 25°C using a Beacon 2000 Fluorescence Polarization System. Polarization values were normalized to the FP value measured at 0 nM RecG. Normalized FP was converted to normalized anisotropy. Experiments were performed in triplicate, and the data were fit to a one site binding model (, where X is ligand concentration, Y is normalized anisotropy, Bmax is the maximum anisotropy, and KD is the dissociation constant) using GraphPad Prism Software.\nFigure 2. RecG binds directly and specifically to the SSB-Ct. (A) Fluorescence anisotropy binding isotherms for RecG binding to SSB-Ct (black), SSB113 (violet), SSBΔF (blue), or SSB IDL (green) peptides. Peptide sequences are listed in parentheses with * representing an N-terminal 6-FAM label. Anisotropy values are normalized to the reading at 0 μM RecG. […] (B–E) ITC analysis of RecG/SSB binding. Thermograms (top) and binding isotherms (bottom) of titrations of (B) full-length SSB, (C) SSB-Ct peptide, (D) SSBΔF or (E) SSBΔF peptide into RecG solutions.\nTwo models explaining how RecG interacts with SSB have been proposed - RecG could interact with the SSB-Ct ([29]) or RecG could interact with the IDL ([48],[49]). To begin testing each model, we used an equilibrium fluorescence anisotropy assay to measure RecG binding to fluorescently labeled SSB-Ct or IDL peptides (Figure 2). Titration of RecG with the SSB-Ct peptide led to an increase in fluorescence anisotropy, which occurs when protein binding slows the tumbling rate of a labeled peptide ([90]). […] KD values in the low micromolar range are typical for SSB/SIP complexes ([10],[12–14],[19],[23]). […]"}, "AlkB protein": {"system": "AlkB protein", "conditions": "peptide identical to IDL residues 152–169; cited from earlier work", "source_text": "The IDL peptide that was used included residues 152–169 of SSB, which has two of the three PxxP motifs in E. coli SSB."}, "RecG R474E": {"target": "RecG R474E (Escherichia coli, UniProt P24230, R474E)", "assay": "Fluorescence anisotropy binding of 6-FAM-labelled SSB-Ct peptide to RecG R474E", "design": "species or system E. coli", "conditions": "10 nM 6-FAM peptide, pH 7.6, 25°C, triplicate, read-out: FP K D", "source_text": "In vivo assembly mutagenesis ([78]) was used to introduce the R474E or R95A mutation into RecG overexpression plasmid pEAW111 to create variant overexpression plasmids pNJB3 and pEAW1324, respectively. RecG R474E or RecG R95A were expressed in STL2669/pT7pol26 and purified using the same purification scheme as wildtype RecG. The purified proteins appeared as single bands on SDS-PAGE gels and were quantified using monomer extinction coefficient ε280 nm = 5.022 × 10^4 M^−1 cm^−1. The RecG R95A preparation included a very weak nickase contaminant.\nSSB peptides (sequences listed in Figure 2) were designed with an N-terminal tryptophan residue for quantification and N-terminal 6-FAM label (Genscript). […] Fluorescence polarization (FP) values were measured at 25°C using a Beacon 2000 Fluorescence Polarization System. Polarization values were normalized to the FP value measured at 0 nM RecG. […]\nTo more rigorously and quantitatively test the RecG HD2/SSB-Ct binding model, a RecG variant in which one of the putative SSB-binding residues is altered (RecG R474E) was purified and tested for binding to the SSB-Ct peptide and to full-length SSB in vitro. […] Binding was not detected in either titration (Figure 4C). […]"}, "[1]": {"target": "SSB113 peptide, 6-FAM labelled (E. coli) (UniProt P0AGE0)", "sequence (P0AGE0 whole entry, looked up)": "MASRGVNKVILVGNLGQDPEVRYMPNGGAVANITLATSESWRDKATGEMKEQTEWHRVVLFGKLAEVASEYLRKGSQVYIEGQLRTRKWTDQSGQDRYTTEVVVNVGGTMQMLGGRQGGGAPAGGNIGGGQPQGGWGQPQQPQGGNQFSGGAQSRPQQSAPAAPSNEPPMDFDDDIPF", "assay": "fluorescence polarisation; RecG titrated against 10 nM 6-FAM peptide; 0.2 M potassium glutamate, 1 mM DTT, 0.1 μg/ml BSA, 1x RecA buffer (25 mM Tris-acetate pH 7.6, 5% glycerol, 10 mM magnesium acetate); 30 min at room temperature, read at 25°C; one site binding model, triplicate"}, "[2]": {"target": "SSBΔF peptide, 6-FAM labelled (E. coli)", "assay": "fluorescence polarisation; RecG titrated against 10 nM 6-FAM peptide; 0.2 M potassium glutamate, 1 mM DTT, 0.1 μg/ml BSA, 1x RecA buffer (25 mM Tris-acetate pH 7.6, 5% glycerol, 10 mM magnesium acetate); 30 min at room temperature, read at 25°C; one site binding model, triplicate"}, "[3]": {"target": "T2, RecG DNA helicase, wildtype (E. coli, UniProt P24230 1-693)", "T2 construct": "RecG DNA helicase, E. coli, expressed from overexpression plasmid pEAW111; No tag is mentioned; also called WT RecG; source: E. coli STL2669/pT7pol26 with pEAW111, purified (ammonium sulfate, DEAE, Source 15Q, Source 15S)", "T2 sequence (looked up)": "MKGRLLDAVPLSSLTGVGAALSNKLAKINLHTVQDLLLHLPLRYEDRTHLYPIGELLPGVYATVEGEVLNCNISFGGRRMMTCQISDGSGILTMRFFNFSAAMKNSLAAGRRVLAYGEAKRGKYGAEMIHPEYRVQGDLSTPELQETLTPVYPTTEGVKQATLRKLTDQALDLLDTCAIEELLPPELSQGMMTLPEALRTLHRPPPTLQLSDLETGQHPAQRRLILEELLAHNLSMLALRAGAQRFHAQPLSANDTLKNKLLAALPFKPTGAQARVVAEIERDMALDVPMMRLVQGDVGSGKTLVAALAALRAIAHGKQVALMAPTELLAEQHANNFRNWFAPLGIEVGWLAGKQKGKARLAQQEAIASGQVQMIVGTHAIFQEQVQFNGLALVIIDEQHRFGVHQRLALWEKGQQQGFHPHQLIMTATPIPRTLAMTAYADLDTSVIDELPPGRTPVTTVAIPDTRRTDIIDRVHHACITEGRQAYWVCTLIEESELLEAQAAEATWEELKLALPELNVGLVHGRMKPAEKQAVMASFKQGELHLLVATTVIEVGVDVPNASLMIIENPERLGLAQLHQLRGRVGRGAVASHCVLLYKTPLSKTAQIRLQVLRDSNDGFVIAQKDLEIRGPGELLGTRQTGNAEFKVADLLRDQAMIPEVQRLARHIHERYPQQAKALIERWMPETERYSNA", "assay": "fluorescence polarisation; RecG titrated against 10 nM 6-FAM peptide; 0.2 M potassium glutamate, 1 mM DTT, 0.1 μg/ml BSA, 1x RecA buffer (25 mM Tris-acetate pH 7.6, 5% glycerol, 10 mM magnesium acetate); 30 min at room temperature, read at 25°C; one site binding model, triplicate", "conditions": "both partners purified"}, "RecG R95A": {"target": "T3, RecG R95A (E. coli, UniProt P24230 1-693, R95A)", "T3 construct": "RecG DNA helicase, E. coli, R95A introduced into pEAW111 to give pEAW1324; The preparation included a very weak nickase contaminant; source: E. coli STL2669/pT7pol26 with pEAW1324, purified (same scheme as wildtype RecG)", "T3 sequence (looked up)": "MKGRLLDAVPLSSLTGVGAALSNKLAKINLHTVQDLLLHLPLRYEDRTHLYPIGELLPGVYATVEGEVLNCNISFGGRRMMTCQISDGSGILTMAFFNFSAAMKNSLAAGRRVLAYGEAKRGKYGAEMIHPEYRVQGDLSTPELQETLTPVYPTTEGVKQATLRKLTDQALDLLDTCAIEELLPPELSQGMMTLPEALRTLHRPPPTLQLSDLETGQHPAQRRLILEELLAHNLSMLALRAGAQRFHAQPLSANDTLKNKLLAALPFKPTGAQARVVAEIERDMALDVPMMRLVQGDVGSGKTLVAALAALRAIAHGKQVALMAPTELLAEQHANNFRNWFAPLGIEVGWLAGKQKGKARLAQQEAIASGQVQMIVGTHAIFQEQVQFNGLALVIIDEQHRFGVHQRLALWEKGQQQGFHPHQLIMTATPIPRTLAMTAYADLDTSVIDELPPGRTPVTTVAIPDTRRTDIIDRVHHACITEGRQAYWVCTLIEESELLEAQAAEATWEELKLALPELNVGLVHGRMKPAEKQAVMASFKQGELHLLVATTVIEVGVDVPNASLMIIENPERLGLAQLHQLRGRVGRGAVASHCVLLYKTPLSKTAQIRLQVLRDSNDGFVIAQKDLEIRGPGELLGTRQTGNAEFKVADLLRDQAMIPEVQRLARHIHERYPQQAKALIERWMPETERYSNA", "assay": "fluorescence polarisation; RecG titrated against 10 nM 6-FAM peptide; 0.2 M potassium glutamate, 1 mM DTT, 0.1 μg/ml BSA, 1x RecA buffer (25 mM Tris-acetate pH 7.6, 5% glycerol, 10 mM magnesium acetate); 30 min at room temperature, read at 25°C; one site binding model, triplicate", "conditions": "both partners purified"}},
  "note": "Where a SMILES comes first, the peptide text is derived from it. Where no end group is shown, it is not given here. The star is where a group is joined. 6FAM = O=C1OC2(c3ccc(O)cc3Oc3cc(O)ccc32)c2cc(C(=O)*)ccc21",
  "data": [
    {"molecule": "C[C@H](NC(=O)[C@H](Cc1c[nH]c2ccccc12)NC(=O)c1ccc2c(c1)C1(OC2=O)c2ccc(O)cc2Oc2cc(O)ccc21)C(=O)N[C@@H](CCC(N)=O)C(=O)N[C@@H](CO)C(=O)N[C@@H](CCCNC(=N)N)C(=O)N1CCC[C@H]1C(=O)N[C@@H](CCC(N)=O)C(=O)N[C@@H](CCC(N)=O)C(=O)N[C@@H](CO)C(=O)N[C@@H](C)C(=O)N1CCC[C@H]1C(=O)N[C@@H](C)C(=O)N[C@@H](C)C(=O)N1CCC[C@H]1C(=O)N[C@@H](CO)C(=O)N[C@@H](CC(N)=O)C(=O)N[C@@H](CCC(=O)O)C(=O)N1CCC[C@H]1C(=O)O", "note": "[IDL 152–169 peptide] (6FAM-WAQSRPQQSAPAAPSNEP-OH; C-terminus assumed)", "values": [
      {"measurement": "Kd", "setting": "RecG (WT)", "result": "> 30", "unit": "µM"},
      {"measurement": "binding to AlkB, in words", "setting": "AlkB protein", "result": "previously reported to bind to the AlkB protein"}
    ]},
    {"molecule": "WMDFDDDIPF [SSB-Ct peptide]", "values": [
      {"measurement": "Kd", "setting": "RecG R474E", "result": "> 30", "unit": "µM"}
    ]},
    {"molecule": "RecG DNA helicase, wildtype (enzyme) MKGRLLDAVPLSSLTGVGAALSNKLAKINLHTVQDLLLHLPLRYEDRTHLYPIGELLPGVYATVEGEVLNCNISFGGRRMMTCQISDGSGILTMRFFNFSAAMKNSLAAGRRVLAYGEAKRGKYGAEMIHPEYRVQGDLSTPELQETLTPVYPTTEGVKQATLRKLTDQALDLLDTCAIEELLPPELSQGMMTLPEALRTLHRPPPTLQLSDLETGQHPAQRRLILEELLAHNLSMLALRAGAQRFHAQPLSANDTLKNKLLAALPFKPTGAQARVVAEIERDMALDVPMMRLVQGDVGSGKTLVAALAALRAIAHGKQVALMAPTELLAEQHANNFRNWFAPLGIEVGWLAGKQKGKARLAQQEAIASGQVQMIVGTHAIFQEQVQFNGLALVIIDEQHRFGVHQRLALWEKGQQQGFHPHQLIMTATPIPRTLAMTAYADLDTSVIDELPPGRTPVTTVAIPDTRRTDIIDRVHHACITEGRQAYWVCTLIEESELLEAQAAEATWEELKLALPELNVGLVHGRMKPAEKQAVMASFKQGELHLLVATTVIEVGVDVPNASLMIIENPERLGLAQLHQLRGRVGRGAVASHCVLLYKTPLSKTAQIRLQVLRDSNDGFVIAQKDLEIRGPGELLGTRQTGNAEFKVADLLRDQAMIPEVQRLARHIHERYPQQAKALIERWMPETERYSNA", "values": [
      {"measurement": "Kd", "setting": "[1]", "result": 23, "unit": "µM"},
      {"measurement": "Kd", "setting": "[2]", "result": "> 30", "unit": "µM"}
    ]},
    {"molecule": "6FAM-WMDFDDDIPF (N-terminal tryptophan residue added for quantification; C-terminal tip of SSB, E. coli; also called fluorescently labeled SSB-Ct peptide; source: synthetic peptide (Genscript))", "note": "[SSB-Ct peptide, 6-FAM labelled]", "values": [
      {"measurement": "Kd", "setting": "[3]", "result": "3.1 ± 0.4", "unit": "µM"},
      {"measurement": "Kd", "setting": "RecG R95A", "result": "1.8 ± 0.4", "unit": "µM"}
    ]}
  ]
}
